Experimental findings from publication PMC11626169 are described below.

The target of this data set is T1, GST-HY5 (Arabidopsis thaliana, UniProt O24646 1-168).
T1 sequence: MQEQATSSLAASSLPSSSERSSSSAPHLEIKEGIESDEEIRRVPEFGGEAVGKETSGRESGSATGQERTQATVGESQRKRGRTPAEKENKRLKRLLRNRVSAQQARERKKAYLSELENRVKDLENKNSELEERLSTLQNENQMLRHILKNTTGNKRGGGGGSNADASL
Nature of the data set: EMSA. Background: A gel shift assay detects complexes by their altered migration in electrophoresis.

B1: NST3 promoter Probe 1 (dsDNA)
DNA 1: CATGACATTACACGTCAAAAGAAATATGTCTTACGTCAGAACTTACGTAT
DNA 2: ATACGTAAGTTCTGACGTAAGACATATTTCTTTTGACGTGTAATGTCATG
Consider B1, for which the binding result was “binds”.

B2: NST3 promoter Probe 2 (dsDNA)
DNA 1: AATTAACATGGTAGAATGTAGATGACGTAGATCATGAAACGAGTGTGTGA
DNA 2: TCACACACTCGTTTCATGATCTACGTCATCTACATTCTACCATGTTAATT
In the case of B2, the binding result is listed as “binds”.
